Reference: patent publication US20200345810A1, “USE OF ALPHA-1-MICROGLOBULIN FOR PROTECTION OF BONE MARROW CELLS” (GUARD THERAPEUTICS INTERNATIONAL AB, priority 2017, published 2020)

Tests used:
[1] = general background on A1M secreted into the blood stream; cited from earlier work
[2] = system: Rps19 deficient erythroid precursors; test: Drug screen: proliferation of Kit+ bone marrow cells in erythroid culture (CellTiter Glo); type: cell-based, mice; details: 5 days expansion; A1M at 5 and 10 μM; FIG. 4B
Protocol: (§1) FIG. 4: A1M treatment improves expansion of erythroid cells from a murine DBA model and patients. CD117 (Kit)+ bone marrow cells were treated with Doxycycline to induce Rps19 deficiency. Twenty four hours after Doxycycline administration, cells were treated with drugs interfering with iron or heme availability. The ATP measuring platform CellTiter Glo was used to monitor viable cells after 5 days of expansion. In A) a schematic picture of the drug screen is shown. B) Proliferation of bone marrow cells (as described in A) from Rps19 inducible mice treated with respective drug compounds interfering with iron or heme availability is presented. Shown is also a schematic picture of drug activity where A1M is shown to have intracellular effects by reducing unbound heme in erythroblast. The cells were cultured in erythroid promoting media for 5 days. Kruskal-Wallis non parametric test with Dunn's multiple comparisons test was used for statistical analysis, and genotypes were compared to respective control, separately. p-values: *≤005, **≤001, ***≤0001, ****≤00001. C) Concentration of free unbound intracellular heme in Kit+ bone marrow cells from the Rps19 deficient mouse expanded in erythroid culture with A1M or vehicle for 72 hours. Mann Whitney non parametric analysis was employed for statistical analysis within each genotype. D) Expansion of CD34+ erythroid precursors from peripheral blood of DBA patients with mutations in RPS19, RPL35a and RPS26, or healthy controls treated with A1M or vehicle in erythroid promoting media for 7 days. […]
(§2) The drugs administered 24 hours after Doxycycline administration were A1M (supplied by A1M Pharma AB, Sweden), N-methyl mesoporphyrin IX (AH Diagnostics, Denmark), Succinylacetone, hemin, Deferoxamine, Ferrostatin and N-acetyl-L-cystein and hemopexin (Sigma-Aldrich). Cell expansion 5 days after drug administration was measured using CellTiter Glo (Promega, US), which measures the number of viable and metabolically active cells in culture based on quantitation of the ATP present. Plates were read on Victor 3 Multilabel counter (PerkinElmer, US).

WT cells = test: as above; type: cell-based, mice; details: 5 days expansion; FIG. 4B
Protocol: as §1, §2

[3] = system: cells from healthy subjects; test: Expansion of CD34+ erythroid precursors from peripheral blood (manual cell count); type: cell-based, human; details: 5 μM A1M every 2-3 days, 7-8 days; FIG. 4D
Protocol: as §1, with “genotype.” for “genotype. D) Expansion of CD34+ erythroid precursors from peripheral blood of DBA patients with mutations in RPS19, RPL35a and RPS26, or healthy controls treated with A1M or vehicle in erythroid promoting media for 7 days.”

[4] = system: erythroid precursors from DBA patients; test: as above; type: cell-based, human; details: 5 μM A1M every 2-3 days, 7-8 days; mutations in RPS19, RPS26, RPL35a; FIG. 4D
Protocol: as §1, with “genotype.” for “genotype. D) Expansion of CD34+ erythroid precursors from peripheral blood of DBA patients with mutations in RPS19, RPL35a and RPS26, or healthy controls treated with A1M or vehicle in erythroid promoting media for 7 days.”

bone marrow cells = test: Bone marrow flow cytometry after 177Lu-DOTATATE exposure (radiation-induced damage); type: in vivo, BALB/c mice; details: 4 days
Protocol: (§3) Female BALB/c mice (Taconic, Denmark) at the age of 12 weeks were used in this study. Two groups (n=5-10) received a subcutaneous administration of either A1M (20 mg/kg) or vehicle buffer (10 mM Na-phosphate pH 7.4+0.15 M NaCl+12 mM histidine) followed by an intravenous (i.v.) injection, 30 minutes later, of ^177Lu-DOTATATE (150 MBq). A control group (n=5-10) received a subcutaneous administration of vehicle, followed by, 30 minutes after, an i.v. injections of NaCl. Animals were sacrificed 4 days post-injections.
After 4 days (post ^177Lu-DOTATATE administration), blood, for peripheral blood cell and reticulocyte count, was sampled from vena saphena, on non-anesthetized animals, in EDTA pre-coated vials (Microvette CB 300 K2E, Sarstedt, Nümbrecht, Germany) and placed on a rocking mixer in room temperature followed by analysis as described below. […]
Bone marrow cells were isolated by crushing femur in PBS containing 2% FCS (GIBCO, Waltham, Mass., USA) and passing them though a 70 um cell strainer to obtain single cell suspension. […] All experiments were performed on LSRFortessa (BD Biosciences) flow cytometry and analyzed with FlowJo software.
Bone marrow cellularity was counted from the single cell suspension using hematology analyzer SYSMEX KX-21 N.

peripheral blood cells = test: Peripheral blood reticulocyte count after 177Lu-DOTATATE exposure; type: in vivo, BALB/c mice; details: A1M 20 mg/kg subcutaneous 30 minutes prior to 150 MBq 177Lu-DOTATATE i.v.; 4 days; FIG. 2B
Protocol: as §3
After 4 days (post ^177Lu-DOTATATE administration), blood, for peripheral blood cell and reticulocyte count, was sampled from vena saphena, on non-anesthetized animals, in EDTA pre-coated vials (Microvette CB 300 K2E, Sarstedt, Nümbrecht, Germany) and placed on a rocking mixer in room temperature followed by analysis as described below. Thereafter the animals were anaesthetized using isoflurane, sacrificed by cervical dislocation and femur (left and right) sampled and placed in PBS, pH 7.4 in a 24 well plate standing on wet ice.
Following collection of peripheral blood SYSMEX KX-21N hematology analyzer was used for determining Blood parameters. Reticulocyte count was determined using LSR Fortessa or Canto II flow cytometry using Retic-Count (BD Biosciences).

[5] = system: Rps19 deficient erythroid cells; test: Free unbound intracellular heme in Kit+ bone marrow cells expanded in erythroid culture; type: cell-based, mouse; details: erythroid culture with A1M or vehicle for 72 hours; FIG. 4C
Protocol: as §1, with “genotype.” for “genotype. D) Expansion of CD34+ erythroid precursors from peripheral blood of DBA patients with mutations in RPS19, RPL35a and RPS26, or healthy controls treated with A1M or vehicle in erythroid promoting media for 7 days.”

[6] = Solubility/stability and function of A1M mutation variants; type: physicochemical; details: mutated A1M variants

B1: alpha-1-microglobulin (protein, listed as Homo sapiens)
chain: GPVPTPPDNIQVQENFDISRIYGKWYNLAIGSTCPWLKKIMDRMTVSTLVLGEGATEAEISMTSTHWRKGVCEETSGAYEKTDTDGKFLYHKSKWDITMESYVVHTNYDEYAIFLTKKFSRHHGPTITAKLYGRAPQLRETLLQDFRVVAQGVGIPEDSIFTMADRGECVPGEQEPEPILIPR
modifications: Wildtype human A1M, no mutations
notes: Recombinant human A1M, variant RMC-035 corresponding to A1M (R66H+N17,96D), supplied by A1M Pharma AB
- T½ of transport across the vessel walls to the extravascular compartment [1]: 2 to 3 min
- proliferation of Rps19 deficient erythroid precursors [2]: increased proliferation
- proliferation of WT cells (WT cells): No effect on proliferation
- expansion of cells from healthy subjects [3]: no such trend was observed
- expansion of erythroid precursors from three DBA patients [4]: improved expansion
- percentage of viable reticulocytes in bone marrow (bone marrow cells; A1M 20 mg/kg subcutaneous 30 minutes prior to 150 MBq 177Lu-DOTATATE i.v., FIG. 2A): completely preserved reticulocyte population at the level of the non-radiation exposed control animals
- protection of the proerythroblast population (bone marrow cells; A1M 20 mg/kg subcutaneous 30 minutes prior to 150 MBq 177Lu-DOTATATE, FIG. 3): displayed protection of the proerythroblast population
- percentage of viable reticulocytes in peripheral blood (peripheral blood cells): completely preserved reticulocyte population at the level of the non-radiation exposed control animals
- level of unbound intracellular heme [5]: significantly reduce the level of unbound intracellular heme back to WT levels

B2: (M41K+R66H): A1M with point mutations M41K and R66H (protein, UniProt P02760 20-203, looked up, variant M41K R66H)
Alpha-1-microglobulin: GPVPTPPDNIQVQENFNISRIYGKWYNLAIGSTCPWLKKIKDRMTVSTLVLGEGATEAEISMTSTHWRKGVCEETSGAYEKTDTDGKFLYHKSKWNITMESYVVHTNYDEYAIFLTKKFSRHHGPTITAKLYGRAPQLRETLLQDFRVVAQGVGIPEDSIFTMADRGECVPGEQEPEPILIPRV
modifications: Alpha-1-microglobulin
- solubility and/or stability and function [6]: increased solubility and/or stability with maintained function

B3: (M41K+N17,96D): A1M with point mutations M41K and N17,96D (protein, UniProt P02760 20-203, looked up, variant M41K N17D N96D)
Alpha-1-microglobulin: GPVPTPPDNIQVQENFDISRIYGKWYNLAIGSTCPWLKKIKDRMTVSTLVLGEGATEAEISMTSTRWRKGVCEETSGAYEKTDTDGKFLYHKSKWDITMESYVVHTNYDEYAIFLTKKFSRHHGPTITAKLYGRAPQLRETLLQDFRVVAQGVGIPEDSIFTMADRGECVPGEQEPEPILIPRV
modifications: Alpha-1-microglobulin
notes: A1M with point mutations M41K and N17,96D
- solubility and/or stability and function [6]: increased solubility and/or stability with maintained function

B4: (R66H+N17,96D): A1M with point mutations R66H and N17,96D; RMC-035 corresponds to this variant (protein, UniProt P02760 20-203, looked up, variant R66H N17D N96D)
Alpha-1-microglobulin: GPVPTPPDNIQVQENFDISRIYGKWYNLAIGSTCPWLKKIMDRMTVSTLVLGEGATEAEISMTSTHWRKGVCEETSGAYEKTDTDGKFLYHKSKWDITMESYVVHTNYDEYAIFLTKKFSRHHGPTITAKLYGRAPQLRETLLQDFRVVAQGVGIPEDSIFTMADRGECVPGEQEPEPILIPRV
modifications: Alpha-1-microglobulin RMC-035
- solubility and/or stability and function [6]: increased solubility and/or stability with maintained function

B5: (M41K+R66H+N17,96D): A1M with point mutations M41K, R66H and N17,96D (protein, UniProt P02760 20-203, looked up, variant M41K R66H N17D N96D)
Alpha-1-microglobulin: GPVPTPPDNIQVQENFDISRIYGKWYNLAIGSTCPWLKKIKDRMTVSTLVLGEGATEAEISMTSTHWRKGVCEETSGAYEKTDTDGKFLYHKSKWDITMESYVVHTNYDEYAIFLTKKFSRHHGPTITAKLYGRAPQLRETLLQDFRVVAQGVGIPEDSIFTMADRGECVPGEQEPEPILIPRV
modifications: Alpha-1-microglobulin
notes: A1M with point mutations M41K, R66H and N17,96D
- solubility and/or stability and function [6]: increased solubility and/or stability with maintained function

B6: hemopexin: mainly extracellular heme scavenger (Sigma-Aldrich) (protein, UniProt P02790 24-462, looked up)
Hemopexin: TPLPPTSAHGNVAEGETKPDPDVTERCSDGWSFDATTLDDNGTMLFFKGEFVWKSHKWDRELISERWKNFPSPVDAAFRQGHNSVFLIKGDKVWVYPPEKKEKGYPKLLQDEFPGIPSPLDAAVECHRGECQAEGVLFFQGDREWFWDLATGTMKERSWPAVGNCSSALRWLGRYYCFQGNQFLRFDPVRGEVPPRYPRDVRDYFMPCPGRGHGHRNGTGHGNSTHHGPEYMRCSPHLVLSALTSDNHGATYAFSGTHYWRLDTSRDGWHSWPIAHQWPQGPSAVDAAFSWEEKLYLVQGTQVYVFLTKGGYTLVSGYPKRLEKEVGTPHGIILDSVDAAFICPGSSRLHIMAGRRLWWLDLKSGAQATWTELPWPHEKVDGALCMEKSLGPNSCSANGPGLYLIHGPNLYCYSDVEKLNAAKALPQPQNVTSLLGCTH
- proliferation of Rps19 deficient erythroid precursors [2]: no effect
